Where a chain is given by its changes, count along the chain named. Numbers in names are those of the source.
Substrate: CCCCCCCCCCCC(=O)Oc1ccc([N+](=O)[O-])cc1
Assay: p-nitrophenol release, Michaelis-Menten
Format: biochemical, Rhizomucor miehei

B1: Rhizomucor miehei lipase (RML) (Rhizomucor miehei) (protein)
chain: VPIKRQSNSTVDSLPPLIPSRTSAPSSSPSTTDPEAPAMSRNGPLPSDVETKYGMALNATSYPDSVVQAMSIDGGIRAATSQEINELTYYTTLSANSYCRTVIPGATWDCIHCDATEDLKIIKTWSTLIYDTNAMVARGDSEKTIYIVFRGSSSIRNWIADLTFVPVSYPPVSGTKVHKGFLDSYGEVQNELVATVLDQFKQYPSYKVAVTGHSLGGATALLCALDLYQREEGLSSSNLFLYTQGQPRVGDPAFANYVVSTGIPYRRTVNERDIVPHLPPAAFGFLHAGEEYWITDNSPETVQVCTSDLETSDCSNSIVPFTSVLDHLSYFGINTGLCT
With B1 as the protein, how does the Km (at the enzyme's optimal conditions (optimum 45 °C)) read?
The Km was 92 µM.

B2: Rhizomucor miehei lipase (RML) (Rhizomucor miehei; E324I/N214M/N358M) (protein)
chain: B1 chain with N190M, E300I, N334M
How did the Km (at the enzyme's optimal conditions (optimum 55 °C)) turn out when B2 was run?
The Km was 31.75 µM.

From PMC11727178, “Computer-Aided Design to Improve the Thermal Stability of Rhizomucor miehei Lipase” (Foods, 2024)
